The series in a line: soluble on expression in E. coli; label from the status in PepcDB or PDB records.
For “MVPVRLPLFGPSRAEGPMGPLPLRRKALGILYYLALEGPTRRERLADLLWGHRVALQNLRSELTHLRSFFGKEAFRGPVLTLPPGVELDRTPGSGEAMEGLEDLSPAFADWVYGWRTRLAPGEEGTPFPKRLEAVRPPALVILIGPPGSGQESLAQALAQKLGLPLRHGLGEGAGVFYLSEPFPPKEVGLALKPLPGRVLVVARSSFGEDPSFLLALRTRFPAEVTVVEQVPCLSWREAVGGPLRHLPFAEAARFYLRSGGRVEVLRELLAMGNPEALPQRVRAMVALEARHLPWEARKALEVLALHPGPFPEKLAWILGYGEALDELEHRGWLLYCEGRYRFSEPQFRPYLTAGFGEGERCRLHARLAEAWEALGDPVAAAYHRFYGEKGEALKAAQLGSWRQALAAHPGPNVPLPRSRVRKGKKRALETEEIHLVSFQGEVAEAVLELEEPLLLHLQGEVYQELPLGLGANLEAFPFRLRSLKGEGAVYFLPRANPGYYPWGAVLPQENLDHEFLLRPGQYLLELGTPGVVSLRLQAWETAPGNQEILVPLEMTESL”, the “soluble on expression in E. coli” value is given as “soluble”.

For “ASDHQTQAGKPQPLNPKIIIFEQENFQGHSHELSGPCPNLKETGMEKAGSVLVQAGPWVGYEQANCKGEQFVFEKGEYPRWDSWTSSRRTDSLSSLRPIKVDSQEH”, the “soluble on expression in E. coli” value was “soluble”.

Consider “EDFFNAKVQEQIERYQRYHNTAYNLEPDIKFSPGGLRDLHLLYWVALRHSGALTLEAILQSGFIYPQEYQQLQESRAFLFKVRFALHLILKRYDNRLLFDRQIKVSELLGFRGEGNPAVEKMMKCFFQALHRISLISNLLIQHYRENVLSSNQDTVIDQLDDDFQLINQSLCLRNSFVFQEKPARILDLFFYLTQYEHVNIHSDTLRQL”, for which the “soluble on expression in E. coli” value was “not soluble”.

For the sequence “MSSSEGNSDASAPGTPVKSSTPSSRGSSPDSPKKQEPSKKRAILNESDDDDDSRPAPRQLSDSSDDNIHPRGGGEKSSPGAGGGLFGDLSGSSDDDSDREGKPKESNTRARLSDSDAESRGSLNDLQGIVMANPDEIDEDEKAKEHVHDTEMVTGRVTLEYAADPPHFVRMPNFLSVATHPFDPQHYEEDEDDEQAKLDDEGRTRLKLRVENTLRWRVRKDENGKEIRESNAKIVKWDDGTMSLYLGNEIFEVSLVPLNSNNLPHLYVKQPTLMSAQAVLTHRMTFRPHSTDSQTHRKVTLNMADRSRKNAQVKVMDDVGQNPEITRRENARKEEESLRAHIRRTQMVRNNFKVRGPRYAGQYSDDEDMPTSSRKGKKKEAPIIGASSESEDDHADTTKKSGSDSDSDEEYRKRKQQQKKQIVTSDEESD”, the “soluble on expression in E. coli” value is “not soluble”.

For the sequence “MATKEFYFAIIGHCDQPIFEMDFPVGEKKTKESEGTRHLNHYIGHAALDIVDEHALTTSQMYLKMVDKFNEWYVSAFVTASRIRFIMLHTHRADEGIKQFFQEMYETYIKHAMNPFYEIDDVIESPAFEQKATLYGRKYLS”, the “soluble on expression in E. coli” value is reported as “not soluble”.

With “MGSDKIHHHHHHMELKKLDEGLFWPDYKNSIVNFSNSILELFDEKPLHRPFRFPKRVLENVRKVIVMVIDGLSFEIFSDTIHDDDVQVFPCSAVFPTTTAAALPSLYSALTPLEHGFLGYILYLREVGSLVNMIEMSPPGLPRDSVLRFHDFKFTTIFQRLQSKVKSFFLIPRYLLGTGFSRIMSQGSEQIGFSSFGDMIERTLEVLEKHDRTLVFIYWPTLDSIAHKNGVGREYIRELRWIYRILKSELLRRLKQDTLFFLVSDHGQISTPQDNEIWWNFSSEVMRFLDRPPAGEQRMMFLYTKKKRALIEYLKEKYGDFAVFLDTKDVVQLFGTGRKHPEFFSRVGDAVLITRETFSFNYRYTGKEESLSGRHGSLSYQELVVPLVVYRRW”, the “soluble on expression in E. coli” value is “not soluble”.

With “AHHHHHHGSAKLKEPIIAINFKTYIEATGKRALEIAKAAEKVYKETGVTIVVAPQLVDLRMIAESVEIPVFAQHIDPIKPGSHTGHVLPEAVKEAGAVGTLLNHSENRMILADLEAAIRRAEEVGLMTMVCSNNPAVSAAVAALNPDYVAVEPPELIGTGIPVSKAKPEVITNTVELVKKVNPEVKVLCGAGISTGEDVKKAIELGTVGVLLASGVTKAKDPEKAIWDLVSGIIKE”, the “soluble on expression in E. coli” value is on record as “soluble”.

For the sequence “MDHVHKSTTTDEDERNSGRAIDRHNPIIKDGRRSFADDFIKLPTSAEDGEMSNKKLEIYKGRRSITGRRSTGGGGGGGAAALLKLITNDIGLARKSFSCVARPACDLIKTPVGSTRYLLGSDPDSITGSVDQDPAKTVEAEAPAGEDKTLTEKKTTCGDTDQVSCFVVSIMSGINVNKW”, the “soluble on expression in E. coli” value is given as “not soluble”.

As for “MEIHTYEKEFFDLLKRISHYSEAVALMHWDSRTGAPKNGSEDRAESIGQLSTDIFNIQTSDRMKELIDVLYERFDDLSEDTKKAVELAKKEYEENKKIPEAEYKEYVILCSKAETAWEEAKGKSDFSLFSPYLEQLIEFNKRFITYWGYQEHPYDALLDLFEPGVTVKVLDQLFAELKEAIIPLVKQVTASGNKPDTSFITKAFPKEKQKELSLYFLQELGYDFDGGRLDETVHPFATTLNRGDVRVTTRYDEKDFRTAIFGTIHECGHAIYEQNIDEALSGTNLSDGASMGIHESQSLFYENFIGRNKHFWTPYYKKIQEASPVQFKDISLDDFVRAINESKPSFIRVEADELTYPLHIIIRYEIEKAIFSNEVSVEDLPSLWNQKYQDYLGITPQTDAEGILQDVHWAGGDFGYFPSYALGYMYAAQLKQKMLEDLPEFDALLERGEFHPIKQWLTEKVHIHGKRKKPLDIIKDATGEELNVRYLIDYLSNKYSNLYLL”, the “soluble on expression in E. coli” value is “soluble”.

In the case of “QADTAMIVQISADRKEINLVSIPRDSLVDVPQCETSKGTIPAQYNVMFNSIFAGAYKTGGDLSSAASCTLNAVNSLTGLNIQNFIVVDFAGLVKMIDSVGGVDLCIPQNVNDPYTGLNLDKGMHHLDGVAATQYARIRHGIGDGSDTSRTTRQQYLIKQLMSEALS”, the “soluble on expression in E. coli” value is reported as “not soluble”.

With “TSKINWNISVNATTYKNKILTLPEEKRESGIWNGIFKMVEGGSYYDYYIKEWAGVDPEDGKAMWYKDVTDKNGNTTKETTKTYSEATDYKAGCALPDLYGGISTSLNAYGFDFSIALTYQLGGQGYDYTYATLMNSAQGAGTNYHNDILNAWTPENKYTDVPKLNAKESNNNSTSTRFLTSTSYLSLQNISVGYTLPKNWIAKLGCESLRVYFVADNVALLSARKGYDPRTNWNGESNYNYSALRSISGGITMKF”, the “soluble on expression in E. coli” value is on record as “not soluble”.

For the sequence “MTTMTNSLISNSVSSVPESLFSSASIHRPVAINPAMLAQFSINLPVLPFESSASLGTSTTSSSRCSSTESSAAPGKIRRGRPQQEIADGQDAHSQKKRHRRLYARQYRAQMRQKVENVKSLHDEKEQLELEVKALRQAVSGLQQENAQKDFLISILQLNNQINHS”, the “soluble on expression in E. coli” value is “not soluble”.

For “MLIEPRDPLIVRDGRPFTNSPGARAKSLPFPLPQTLAGAYRTRRALLEGLPLPERAEEVLRWGLRGPLLAEEGEGGWRLLAPRPLDALKLGEALYPLRPLELPQGAGTNLPEGLSPVGLPSPALKEKPAPLPAFWYWESFLEWLLQDAPAGFAPRGHEGPVPETRTHVALDPAAQTAREGFLFQTSGLEFVRGRRRLALVLWPEGPEPEGVFPLGGERRLAFWQKGGPGVPPLPEEVVAGLLRHRAARLVFLTPAFLGEAYLPKGRAFQGASVVAAVVGRPLAVSGWNLKEGKPKPSRRAVPAGSVYFVRLPEAWGEGEVRDWAEKVWFQNLSEEEQDRRDGFGLAALGLWDGKLRRWEEA”, the “soluble on expression in E. coli” value is listed as “soluble”.

For the sequence “MRQLLLISDLDNTWVGDQQALEHLQEYLGDRRGNFYLAYATGRSYHSARELQKQVGLMEPDYWLTAVGSEIYHPEGLDQHWADYLSEHWQRDILQAIADGFEALKPQSPLEQNPWKISYHLDPQACPTVIDQLTEMLKETGIPVQVIFSSGKDVDLLPQRSNKGNATQYLQQHLAMEPSQTLVCGDSGNDIGLFETSARGVIVRNAQPELLHWYDQWGDSRHYRAQSSHAGAILEAIAHFDFLS”, the “soluble on expression in E. coli” value is given as “soluble”.

Take “TKLTEQQTMNGLLRFGEYQRIIERRSFSLLDMKRFVTALGLESGGYRGEFSDLVNQGQPAIVPISYAGFKHFVVYKGYKDGRVYVADPALGNISFDEVRFKEIWENNTLFLIQVPE”: the “soluble on expression in E. coli” value is given as “not soluble”.

Take “SEFQSTVVATVDCQKQVRSWRLLRSFIQLLIPTCNCTLVQELEQDNTNLRGKKLYNDIKSRTSSFRSSSSLSSSTVTGTIFGYRKGKINFCIQTPRKSTNLDLLLELAVPTTVLAREMREGALRIVLERNNEKQDDDSFLSKPFWNMYCNGKRVGYARKRSPSQDDMTALTALSKVVVGAGVVTGKELGRFDDELMYLRASFRRVNGSKESESFHLIDPAGNIGQELSIFIVPSSV”: the “soluble on expression in E. coli” value was “soluble”.

For “MGSDKIHHHHHHMDSLVVPGLDTLRRWLDEIGISFFECDSCQALHLPHMQNFDGIFDAKIDLVDNVVLFSALAEVKPSALLALSADLSAINASSLTVKAFIDIQDDNLPKLVVCQSLSIGPGVTMEQFAWFFRQSEEQISMVILEAGANQLLYKGEEEEPAAENVQYHFLH”, the “soluble on expression in E. coli” value is “not soluble”.

Turning to “MAHHHHHHMTNKKKMSNSETGGTRCVYVLSDIDGFKYRLVMEGDVRLLTTSKLKRYLQNATGLSAQQQELSFRGRVMQDGECGGDVGLVDGAVLQLRHVKGMRRTNSGDGRRVNRLPSSSMSMGGVAHRGRSSVVDAASCASPTAGLLTPLQGSHPRDGQNGGEAFTSPPPREMNYRSKRMGREAHALEIENARLEERLLEMERRLANASSDWRLQEEIEQLKGIIAQLLREKEAVGRSAEEKWRAKEEELVKELDLMREERRRLHREQTLFEEEQRALVRSLEEQVRSQQQRLLEQGTTITQQTRQRQPAMNVAEKVEKSLKQLSLELNIPQLHLDDNDTCVLPLGDGTNILVTLDTITERLFMYAVIANSLPSNAGKRLELFEMLLEGALLGRDMATGGVGVCLRNELIIMNVCVDIVHADEYALASIARPFMESVQHWSEAVKKMMPEKKN”, the “soluble on expression in E. coli” value is listed as “not soluble”.

For the sequence “MVESQFEQDSQISTDSPLVLVKAAEKTSAIQQLLDYISNYQMISSNSIPIKSMDKIMMLKLDDIILVDVNQTTLKIYTLTGVFTTTETLVHFANRLNKSNFIQISKHALINLDHLESLSDSFSGNMMAKLSSNIKSSVSRKYVKGLMTQLGI”, the “soluble on expression in E. coli” value is reported as “not soluble”.

Regarding “MKTLGYILMENGEKIDLEFFPEEAPKTVENFKKLAEQGFYDGVTFHRVIPGFVSQGGDPTGTGAGGPGYSIPCETDGNPHRHLVGSLSMAHAGRNTGGSQFFIVHEPQPHLDGVHTVFGKATSGIETVLNMRQGDVMKEVKVWEE”, the “soluble on expression in E. coli” value is recorded as “not soluble”.

Take “MMKEMTVQQMTEKVLNKESLFILDVRNESDFRDWKIEGENFAYLNVPYFELVHGVDSIVDRLPKDQDIVVVCAKGGSAAFVAEQLAEAGFDNVYTLAGGMQAWSEHLHQAKVYEDDQLKIYQFIRVGKGCLSYMVLSGDEALVVDPLRFIDVYEQVAQQEGVTITHIVDSHLHADHLSGGKALAERTGAAYYLMKSEGAVFDFEPLEQHETIDFENVHLEVLAVKTPGHTPGSVSFFVNGKWLFSGDTIFVGGLGRPDLGGKVAEWAEDLYHTVYEKVAAMADDVIVLPAHYANLDEEINAEGYVGDTLGRIRARNEMMQNKAKDEFIDLVIQGAKTETPPNFEDIVAINRGLKTVDIETQRELEIGPLEHHHHHH”: the “soluble on expression in E. coli” value is recorded as “soluble”.

Regarding “MGSDKIHHHHHHMHQLKREALLREAIAAFNQKGFHATSLGDIATSLGVTKAALYHYFPNKHALLFEAFAEALRVGFEAIEAAERHGGSGLDKLQMAVREYLQVTLSEMSRCVIITEEHALEPQDRAKIVEQRDRFEAKLRGFVREGIEDGSVIPCDPKLAIFSIFGAVNWVPKWFSDSGNWSNKQLAKGMSELLCRAVARHPAEAFAPDIGKMRVE”, the “soluble on expression in E. coli” value was “not soluble”.

The record behind these values is the DeepSol protein solubility set.
